Results published in the DeepSol protein solubility set.

Assay: soluble on expression in E. coli; label from the status in PepcDB or PDB records

Sequence | soluble on expression in E. coli
MSIHVNEANLTFHLQTDHTSYIFQIMKNGEAGQIYYGPRIHVQPTYQNLMSQEWRDATPSLNEENPNFQPATIKAEYASLGKGDFRQPAFQVTQANGSRITELTYDHYQLLTGKQRLANLPSTFDDTDDDAQTLVVSFNDRITGLALDLNYSIFPHQDVIVKSAKFTNPSSEKLVLNRALSSQLDLPDANYDLIQFSGTWARERHLYRHPLRPGMQSISSLRMASSHQQNPFMMLARPQTTDEQGAVFGFNLVYSGNFLDAIEVDQYSTSRILTGINPDEFGWNLAPQATFQTPEAILSYTSAGMNQLSQQMASFYQQHLVNPRFAHEERPVLINNWEATYFDFNEAKLMTIVNQAKRLGIEMFVLDDGWFGHRDDDTTSLGDWFVDQRKFPDGIEHFSQAVHQQGMKFGLWFEPEMVSVDSDLYQQHPDWLIHAPKSTPTPGRHQFVLDMARPEVVDYLFKLMSQMIESANLDYIKWDMNRYATEMFSSRLTSDQQLELPHRYILGVYQLYARLTQAYPNVLFESCASGGGRFDLGMMYYAPQAWTSDDTDAAERLLIQFGTSYGYPQAMMGAHVSAVPNDQMGRITSLKTRGAVAFFGDLGYELDITKMAPTELDQVKKQVAFYKCYRQLFQFGKFYRIDSPFVEDGNVTSWQVVSDDQKQAIAARYQLLNHPNAPYTRFYFKGLRPNQRYQINDDPSTYYGDELMNAGYFVPTILADGQESKDFYTQLFVVTAILEHHHHHH | soluble
MLEALKTANKTVGMKQSLKAVESLKAKQVFIAKDADEHVVARIKELCIKNNIPIVYVDTMKQLGKACNIDVGASVACLL | not soluble
MSDVAVAADTTETPAAPTKASKATKASKATKASKATKAKTTKVPMVKADAAHPPFINMVTEAISSIKDRKGPSRAAILKYITTKYTLGDQANKINAHLRKALNKGLESNAFVQASGNGANGRFRLAEKTASVAKSPAAAKKDATGEKKATTTVAKKAATGEKKATTTVAKKAATGEKKATTTVAKKAAAGDKAKKTEVKVKKVKSPKKIAKSPVNKVTKSPVKKIAKSSSMKAAPKKAAAKPAKKAPAAAPEA | soluble
GEVRNIVDKTASFVARNGPEFEARIRQNEINNPKFNFLNPNDPYHAYYRHKVSEFKEGKAQEPS | soluble
MGSDKIHHHHHHMRFPMMELDEKIYRFFENRGRDVTVEYLNLGLGYTAVTTSDGGIGIAYTCFGAKESCSFMNSYYDFEGRPAVELLEKIKSTHPLERTMALALVNALNYEYALSLPEDKENRALFESFGIGEKTRVAMVGYFAPIAGMLGKMGALLEVIDISKKIGHQADFYDRLENWAQVAFITSTSILNSTTEDILRHAGKGVKTVMLGPSTPMIGEVFSHLPVHMLAGTVPLEKEKVLKAIRHGFGTREIQRFSRKSYLALF | not soluble
MGSDKIHHHHHHMPTGLDCTQTMLYRRFGKTNLHLSVFSLGTMRYLADSENVQQTIATALALGINHIETARGYGKSEEYFGQAIKVGLSVARSQLYVTTKIPPTSDADSMRRYIDESLERLNLDYLDCLGIHGLNTWEHLEWVQAKGGCMKAVEEAINDGRIRHVGFSTHGSLEVIQAAINTDFFEFVNLHYYYFFQRNAPAIKLASEKDMGIFIISPADKGGKLYTAPQTLQDLCQPLSPLELNYRFLLSDQRITTLSVGPATPEELVEPLQVADSCGELTSAEITIFQRLQNHQESVLETDKCSQCYACLPCPENINIPEVLRLRNLAVAYNMTDYGQYRYGMFENAGHWFPGMKANRCTECGDCLPRCPEKLDIPNLLEDAHNRLNGRAGRRLWG | not soluble
MAHHHHHHMTNDTEQEQSPSAELAAAAPEPQPSQPQEFYSLRGESHNAVDQEKYGRARTHIAGLGHVSAKDVFKHYRRSWLTPFFGSNEPEPTLQQEGTQHPCQIFSREVHQCLEDHHNSFAFCQTRVAAFQQCLREFSI | not soluble
MSENENSQEKNELLDALNSVEEVNVGDVVKGEVLAIDDDKQVIVGIQGTGVEGVVPLKELSTQRVDDVNEAAKVGDVLDLVVISRIGSDKENGSYLLSHRRLEARKVWDDVEKEYEAGHTIKAPVTQVVKGGLVVDAGVRGFIPASMIDDHYVEDLNAYKGQELELKIIEIEPSENRLILSHRAVVEKQREAQREEALKTLQAGDVVEGKVARLTNFGAFVDLGGIDGLVHVSEISYERVEKPADVLKVGQEVTVKILSVDADRERVSLSIKATLPEPWDGIEEKAPQGAVLDGKVKRLTSFGAFVEVFPGVEGLVHISQISHQHIATPNDVLKVGQEIKVKVLDVRPDEKRLALSIKALEEKPQTADDDNESQPERRSNNNRRRNNNRDNRTASERSTANAPEESTGFTLGDLIGDELKNAESNNDENLEHHHHHH | not soluble
MGSDKIHHHHHHMSLANRTTSSAYRLFNLRLESKTLLSPSLARCVFTGPEVRQMKLDAPDQRIKLLFASESGELTPMTVSDTWYQDYLALPRERRPILRTYTLRSVSRDLQQATIDFVLHGDTGPASSWAGHAKPGDALQIVAPNAEADGASGGYEWAPHDGVEQVLLIADETALPAAMGILEQLATQPSPPSVQAFFEVPKAADCVTPSDFPFAQIHWLPREETGSTIWGERLLYAVQQDVKIPASACINRDDIAQETPEDELLWERATAHRPFYAWVAGESSAIKRLRRYLLDERHLDKETINFMAYWSHR | not soluble
MENTVDAKKDSTIAFTGGRILTMDSEQKYAEAVVIRGDRIAAVGGTYILKSFPDAEIRDLKNRYLLPAFIDSHNHLSSFGCFFPTWANLIGLTEKEAILKAIRRQVRKEPGTGWIVGFGWFDARMGGADLTKKDLDEVSSDRPVLLIQTTFHQSVVNTRALGLLGINQSTPDPRCGIIFRESDGTPTGVLVEYAQAPVFKLVMEADTETLADLIEARAKELLQFGITAIHDPGATPAAEAAYRQLHAEGRLPVSVLMMPHGETLLDNRLRDRLQGQVTGTGDERLRVGPIKLFADGATAETVAFSLKIGGQTINSGCYRDDFEEMLFAATEKGFRVCVHSFGNATTDAVLTAFENAALRAPAGFEMRPRLEHVTLINALQIRRLASMGGCACIQPQFLSRAQNTKQVMLEDGKWYAYGDLVKGGVIVASSSDDPGGFMDARDPIKGSVMGSTMSDGEGNVIFPDQVLPFEQWLWMYTAGGAYAGGQEKERGILKKGMVADLVILEGSLDSKNPTVVAETWAAGKQVYTKELEHHHHHH | not soluble
MGKGVRDPGSDGSLRRKELAMIKVEDMMTRHPHTLLRTHTLNDAKHLMEALDIRHVPIVDANKKLLGIVSQRDLLAAQESSLQRSAQGDSLAFETPLFEVMHTDVTSVAPQAGLKESAIYMQKHKIGCLPVVAKDVLVGIITDSDFVTIAINLLELQEESEPDELDEEQ | not soluble
MAAERKTKLSKNLLRMKFMQRGLDSETKKQLEEEEKKIISEEHWYLDLPELKEKESFIIEEQSFLLCEDLLYGRMSFRGFNPEVEKLMLQMNAKHKAEEVEDETVELDVSDEEMARRYETLVGTIGKKFARKRDHANYEEDENGDITPIKAKKMFLKPQD | soluble
MHQLWTYDPAAGTVEVGAGTTNEGLVDGPGEEAWFAQPSGLAATADRLWLADSETSALRWVDLDGAVHTAVGTGLFDFGHRDGDAEQALLQHPLGVTALPDGSVAVSDTYNHALRRYDPATGEVTTLATDLREPSDAVLVGDDIVVVESARHRLTRLRLPEEAVRVASVAHRTQRAATEVAPGRLQLDVIFQAPAGQKLDTRYGPSTRLLVSSTPPELLLNGEGADPDLSRTLELNPAIPEGVLHVSAMAASCDDDPANEYPACHVHQQDWGVPVRLTEGGADRLPLVLAGMDALEHHHHHH | not soluble
MSGALFLIPAPLGDETVAWLPEGERAKVVHITHFVVEAEKTARKHLKALGVTTPIRELSMSTLNEHTKETDVAALLAPLQAGHDVGLISEAGCPAVADPGAQLVALAHQRDIRVEPLIGPSSILLALMASGANGQCFAFHGYLPVDAAEKSKLVKELEQRSRKHNETQLFIETPYRNNALLAQLRETLAPSTRLAVACDLTLPTQTIVSHRVQDWPQNPPDLHKRPAIFVIHAALEHHHHHH | soluble
MGSDKIHHHHHHMIENVNYARTLLTEEEVGHIVQSGTIVRYKKGQIIFSESDAADRVYFVKEGYVRIFRITQYGRRVTVGCIRSPGQLMGLAETLYGGDRTCFASAIDDVTIVVIRHQQFLDLLEKHPAIAIKVTITLAIRMREAEGIIEEMVCFQVPGRLAQLLIKMAKRAGMETPRGTKISFRLTHEDIAYMIGTSRQNVTSLLNTFKYENSIAIEDKELYILDIEKLNSWVV | not soluble
MAPWKIEEVKTLKGLIKSKPVVAIVDMMDVPAPQLQEIRDKIRDKVKLRMSRNTLIIRALKEAAEELNNPKLAELANYVERGAAILVTDMNPFKLYKLLEENKSPAPVRGGQIAPCDIKVEKGSTGMPPGPFLGELKSVGIPAAIEKGKIAIKEDKVVVKKGEVVSPKLAAVLDRLGIKPIKVGLNILAVYEDGIIYTPDVLKVDEEKLLADI | soluble
MANIVITTHWTDGDVLPFIKIGSELRKRGHRVTLITHCYYKNMAKSQGLDFEAWDSPEQHRQMLEDMKEELDPLRNPCALERYKKKYESIEVRLREFKKVIAHCNTTDTVLVAKNRSSVAAYLAAEKLNIPLVCVFMAPSEMLSMVSYEMMLGKLLANELNLLRKELNLAPVKSWLAWQSSPKRQIALWPDWFAEPIEEWPAEVINVGFPLSYNERFDNLPPDLMEDLLGDEPPVVITGGTSKTIRPEFYPLCVETCRLSGRKGILVTRYEELLPKELPDKVKWFRELPLNKIFPYTSAVIHHGGMGTLSGAIAAGVPQLVLPYYLDRPYNALCLKKLGIAEYLPPIKWKPEIMVDALQKITASSFRERCKLFSKKVSLQNTMNEICCLIEETVNNEEFLLKDISLLQTT | not soluble
MGSDKIHHHHHHMNTLANWKKFLLVAVIICFLVPIMTKAEIAEADTSSELIVSEAKNLLGYQYKYGGETPKEGFDPSGLIQYVFSKADIHLPRSVNDQYKIGTAVKPENLKPGDILFFKKEGSTGTVPTHDALYIGDGQMVHSTQSKGVIITNYKKSSYWSGTYIGARRIAADPATADVPVVQEAEKYIGVPYVFGGSTPSEGFDCSGLVQYVFQQALGIYLPRSAEQQWAVGEKVAPQNIKPGDVVYFSNTYKTGISHAGIYAGAGRFIQASRSEKVTISYLSEDYWKSKMTGIRRFDNLTIPKENPIVSEATLYVGEVPYKQGGVTPETGFDTAGFVQYVYQKAAGISLPRYATSQYNAGTKIEKADLKPGDIVFFQSTSLNPSIYIGNGQVVHVTLSNGVTITNMNTSTYWKDKYAGSIRVQ | not soluble
MPTPDFVLQLREKIGNDPLFLPGVTAVVIKDVPEGAPITAVPEVLLVKRADNGEWTPVTGIVDPGEQPHSAAVREVKEETGLDVTVEALLGVGAVGPVTYPNGDVSHYMDTAMRCEVVGDSTPRIGDDENTEVRWFSVMQMPPMKPRFRLVVGDAVAQLRRPEGFRPRMGYEKRERRR | not soluble
MGSDKIHHHHHHMLLSSDASAFLSPRTVQASRMKPLRIGLFTDTFLPDQNGIVTSVGLLSDELRARGHHVDVVAPFFPEQQDTRPDVRRAPSVRYIFLPTYRLAWPTRKDFEQKYDLIHTHTPLTLGLAGARLARKWDVPHVATYHTHIEAYTHYVPGLTLLQKHTRVVTRLMGLYYRRADAVITPTAAMLDVTREMGVRNPVVIPTSVKPEVLQAAPPVENPWPAGTRRLLTVGRLAREKRFDLVLDTLANLPDAHLVVLGEGPEREHLIRHAERLGVAARVSFLGVKPWTEIGAYYRLAELFLFASDTETQGLVLQEAQLMGVPVIAVGARGTLSGVAQGRSGYLVAPGDVAALTRHAQAILADGQLWRRLSEGARAFGAAWTPGGVAERVLDVYASVLGVPREIPFPEAASPRNTLAYDR | not soluble
